Target: T1, recombinant His-tagged AGO2 (UniProt Q9UKV8 1-859)
T1 construct: AGO2 (argonaute 2); Detected on the array by an HRP-conjugated 6xHis antibody; amine-coupled to a CM5 chip in the SPR; also called His-AGO2; AGO2 recombinant protein; source: recombinant, purified
Test: SPR; Biacore T200; His-AGO2 immobilised on a CM5 chip by amine coupling (~7000 RU); peptides 20 to 1280 nM in HBS-P (10 mM HEPES, 150 mM NaCl, 0.005% T20, pH 7.4), 30 µL/min; Langmuir 1:1 model
Conditions: both partners purified

T1 sequence (Q9UKV8 whole entry): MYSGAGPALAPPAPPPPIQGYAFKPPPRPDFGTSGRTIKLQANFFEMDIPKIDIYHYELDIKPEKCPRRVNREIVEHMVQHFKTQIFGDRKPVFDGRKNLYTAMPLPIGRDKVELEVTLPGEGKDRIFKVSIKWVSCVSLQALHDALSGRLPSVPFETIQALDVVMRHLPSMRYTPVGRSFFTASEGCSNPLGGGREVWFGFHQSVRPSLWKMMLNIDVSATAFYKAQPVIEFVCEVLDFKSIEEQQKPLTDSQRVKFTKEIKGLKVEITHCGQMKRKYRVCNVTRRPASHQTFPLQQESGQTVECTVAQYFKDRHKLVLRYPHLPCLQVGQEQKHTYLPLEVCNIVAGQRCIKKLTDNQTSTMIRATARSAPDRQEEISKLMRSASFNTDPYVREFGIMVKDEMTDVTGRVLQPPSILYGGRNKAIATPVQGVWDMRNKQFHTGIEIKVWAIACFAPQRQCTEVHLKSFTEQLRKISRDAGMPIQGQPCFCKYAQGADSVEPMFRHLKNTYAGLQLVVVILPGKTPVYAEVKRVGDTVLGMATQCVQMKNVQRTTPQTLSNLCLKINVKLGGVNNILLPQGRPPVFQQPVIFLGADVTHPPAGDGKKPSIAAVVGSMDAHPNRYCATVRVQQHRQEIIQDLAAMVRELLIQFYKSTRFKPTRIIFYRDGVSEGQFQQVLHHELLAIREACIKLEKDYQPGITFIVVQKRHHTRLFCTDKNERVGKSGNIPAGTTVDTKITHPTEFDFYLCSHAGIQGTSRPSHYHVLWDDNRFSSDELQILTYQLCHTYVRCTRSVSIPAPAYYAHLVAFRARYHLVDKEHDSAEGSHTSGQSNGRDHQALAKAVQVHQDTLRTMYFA

Binder | Kd [nM]
HSLGGPLIATAFTNG [Pep#26 (decoy peptide as used in the SPR)] | 674
YQFPEFRVERTPLPS [Pep#11 (decoy peptide as used in the SPR)] | 515

Source: publication PMC8833744, “Strategic Decoy Peptides Interfere with MSI1/AGO2 Interaction to Elicit Tumor Suppression Effects” (Cancers, 2022)
